# Results: patent publication US7939064B2 (priority 2006, dated 2011)
# “Also recorded” adds a separate entry of the source.
# B1: NsPLA2 (protein)
# chain: NLYQFKNMVQCTVPNRSWWHFADYGCYCGRGGSGTPVDDLDRCCQIHDNCYNEAEKISRCWPYFKTYSYECSQGTLTCKGGNNACAAAVCDCDRLAAICFAGAPYNDNNYNIDLKARCQ
# modifications: Naja sputatrix
# B2: tPA: tissue plasminogen activator, thrombolytic serine protease converting plasminogen to plasmin (protein, UniProt P00750 36-562, looked up)
# Tissue-type plasminogen …: SYQVICRDEKTQMIYQQHQSWLRPVLRSNRVEYCWCNSGRAQCHSVPVKSCSEPRCFNGGTCQQALYFSDFVCQCPEGFAGKCCEIDTRATCYEDQGISYRGTWSTAESGAECTNWNSSALAQKPYSGRRPDAIRLGLGNHNYCRNPDRDSKPWCYVFKAGKYSSEFCSTPACSEGNSDCYFGNGSAYRGTHSLTESGASCLPWNSMILIGKVYTAQNPSAQALGLGKHNYCRNPDGDAKPWCHVLKNRRLTWEYCDVPSCSTCGLRQYSQPQFRIKGGLFADIASHPWQAAIFAKHRRSPGERFLCGGILISSCWILSAAHCFQERFPPHHLTVILGRTYRVVPGEEEQKFEVEKYIVHKEFDDDTYDNDIALLQLKSDSSRCAQESSVVRTVCLPPADLQLPDWTECELSGYGKHEALSPFYSERLKEAHVRLYPSSRCTSQHLLNRTVTDNMLCAGDTRSGGPQANLHDACQGDSGGPLVCLNDGRMTLVGIISWGLGCGQKDVPGVYTKVTNYLDWIRDNMRP
# Experiments:
# [1] = test system: transient cerebral focal ischemia (left middle cerebral artery occlusion); settings: rat, in vivo
# [2] = test system: neurons in striatum and cortex of ischemic brains; test: Haematoxylin and eosin histology of ischemic brain sections; type: in vivo, rat; settings: NsPLA2 at 0 min post-occlusion
# Text: The ability of NsPLA2 to protect neurons from cell death was investigated. Paraffin-embedded rat brains were sectioned and stained with haematoxylin and eosin. […] Neurons appeared shrunken and nuclei were dysmorphic and pyknotic.
# [3] = test system: neurons in striatum and cortex of ischemic brains; settings: rat, in vivo
# [4] = test system: gene expression in ischemic brain; test: Microarray gene expression analysis (RAE-230A GeneChips) of MCAo and MCAo+NsPLA2 brains; type: in vivo, rat
# Text: Cerebral ischemia is a powerful stimulus for the de novo expression of many gene systems and identification of genes differentially expressed in the ischemic and non-ischemic brain can help illuminate pathophysiology and provide therapeutic targets in ischemia. Analysis of gene expression can also aid in elucidating the role of various pathways or specific genes in the mechanism of action of neuroprotective agents. Consequently, the power of high-density oligonucleotide arrays was harnessed to generate global expression profiles of non-ischemic, ischemic and NsPLA2-treated brains. RNA isolated from the brains of sham-operated rats (sham-op; n=4), rats subjected to 60 min of MCAo (MCAo; n=4) and rats subjected to 60 min of MCAo but treated with 30 μg/200 g body weight NsPLA2 immediately post-occlusion (MCAo+NsPLA2; n=4) was pooled before microarray probe preparation and hybridization to minimize inter-individual variation. Expression analysis was carried out using GeneChips from the RAE-230A Array set, with each chip representing ˜15,900 genes and expressed sequence tags (ESTs). Genes whose expression changed by 1.7-fold or greater in at least one pairwise comparison (between sham-op and MCAo or between MCAo and MCAo+NsPLA2) were deemed significant.
# In an attempt to understand the mechanisms by which NsPLA2 may confer neuroprotection, the gene expression profiles of MCAo and MCAo+NsPLA2 were compared. […] They are listed in Table 1 and include genes involved in cell growth and maintenance (retinol-binding protein, regulator of G-protein signalling 2, DNA topoisomerase, X transporter protein 3, hemoglobin &chain complex, nucleosome assembly protein 1-like, cyclin-dependent kinase inhibitor 1A and chloride intracellular channel 4), development (tropomyosin 4 and neurogenic differentiation 1), lipid metabolism (tissue inhibitor of metalloproteinase 1 and sulfotransferase family 1A), Ca^2+-binding (calpactin 1 heavy chain, calgranulin A, protein disulfide isomeraserelated protein and S-100 related protein), maintenance of cytoskeletal structure (tropomyosin 1 and moesin), defense response (CD44 antigen), regulation of blood pressure (angiotensinogen), cell-cell signaling (thyrotropin releasing hormone), antioxidant activity (glutathione-S-transferase), proteolysis (MMP-9), cell adhesion (l-gicerin) and transcriptional regulation (POU domain).
# [5] = test system: gene expression in ischemic brain; test: Real-time PCR quantitation of nine genes in MCAo and NsPLA2-treated brains; type: in vivo, rat; settings: NsPLA2 treatment relative to MCAo brain
# Text: The expression of nine genes that may have important roles in mediating the neuroprotective action of NsPLA2 was quantitated by real-time PCR (FIG. 8). Specific primers were used for PCR amplification. The relative expression of each gene in the heart was obtained after normalizing against an internal control (18S ribosomal RNA) and a calibrator, in this case, the sham-operated control or MCAo brain, FIGS. 8A and B respectively, relative gene expression=1).
# TNF-a = settings: rat, in vivo
# [6] = LD50 and signs of toxicity of NsPLA2
# [7] = test system: Bcl-2, Bcl-XL and Bax genes; test: Real-time PCR of anti-/pro-apoptotic genes in OGD hippocampal tissues; settings: OGD and NsPLA2 treatment
# Method: (A) Organotypic hippocampal cultures were subjected to OGD (oxygen-glucose deprivation) for 90 mins and treated with NsPLA2. […] Total RNA was isolated from the hippocampal tissues and subjected to reverse transcription and PCR. The data was derived from 6 independent PCR (n=6).
# Thus, we carried out experiments using the organotypic hippocampal cultures, in conditions where oxygen is eliminated by using the 95% N2 and 5% CO2 and glucose was deprived in cultures by using culture media without glucose.
# [8] = NsPLA2-treated vs saline-treated MCAo brain
molecule,measurement,setting,value
B1,brain infarction compared to saline-treated control,[1],no effect
same,"infarct size, TTC staining of serial brain sections",[1],significant reduction in infarct size; also recorded: reduced the infarct size but to a lesser extent
same,reduction of focal ischemia / infarct size (summary statement),[1],80%
same,"ischemic damage, cellular morphology (haematoxylin and eosin)",[2],significantly reduced ischemic damage
same,degree of apoptosis (TUNEL),[3],greatly reduced
same,"fold change, Adipose differentiation-related protein (1390383_at)",[4]; [8],−1.75 fold
same,"fold change, CD9 antigen (1371499_at)",[4]; [8],−2.6 fold
same,"fold change, CD44 antigen (1387952_a_at)",[4]; [8],−3.7 fold
same,"fold change, Calcium/calmodulin-dependent protein kinase (CaM kinase) II gamma (1369993_at)",[4]; [8],1.74 fold
same,"fold change, Chloride intracellular channel 4 (1387420_at)",[4]; [8],−1.9 fold
same,"fold change, DNA topoisomerase I (1369421_at)",[4]; [8],−4.6 fold
same,"fold change, I-gicerin (1369793_a_at)",[4]; [8],−1.75 fold
same,"fold change, NOV protein (1376734_at)",[4]; [8],1.87 fold
same,"fold change, ProSAPiP1 protein (1373057_at)",[4]; [8],1.74 fold
same,"fold change, S100 calcium-binding protein A8 (calgranulin A) (1368494_at)",[4]; [8],−1.75 fold
same,"fold change, S-100 related protein (1386890_at)",[4]; [8],−1.9 fold
same,"fold change, Similar to endothelial monocyte-activating polypeptide (1375170_at)",[4]; [8],−1.9 fold
same,"fold change, Similar to plexinB1 (1374444_at)",[4]; [8],2 fold
same,"fold change, Similar to tropomodulin 3 (1372500_at)",[4]; [8],−1.75 fold
same,"fold change, X transporter protein 3 (1369705_at)",[4]; [8],−1.75 fold
same,"fold change, aldose reductase-like protein (1370902_at)",[4]; [8],−2.6 fold
same,"fold change, angiotensinogen (1387811_at)",[4]; [8],1.87 fold
same,"fold change, calpactin I heavy chain (1367584_at)",[4]; [8],−1.75 fold
same,"fold change, cyclin-dependent kinase inhibitor 1A (1387391_at)",[4]; [8],−3 fold
same,"fold change, fibulin 2 (1389533_at)",[4]; [8],−1.75 fold
same,"fold change, gap junction protein, beta 6 (connexin 30) (1368577_at)",[4]; [8],1.87 fold
same,"fold change, glutathione S-transferase, alpha 1 (1367774_at)",[4]; [8],2 fold
same,"fold change, hemoglobin beta chain complex (1371102_x_at)",[4]; [8],−1.75 fold
same,"fold change, homer, neuronal immediate early gene, 1 (1370997_at)",[4]; [8],−2.44 fold
same,"fold change, matrix metalloproteinase 9 (1369166_at)",[4]; [8],−2 fold
same,"fold change, microtubule-associated protein, RP/EB family, member 1 (1370792_at)",[4]; [8],−4.3 fold
same,"fold change, moesin (1368948_at)",[4]; [8],−2.3 fold
same,"fold change, neurogenic differentiation 1 (1387288_at)",[4]; [8],1.74 fold
same,"fold change, nucleosome assembly protein 1-like 1 (1373473_a_at)",[4]; [8],−2.3 fold
same,"fold change, ornithine decarboxylase antizyme inhibitor (1370575_a_at)",[4]; [8],−1.9 fold
same,"fold change, protein disulfide isomerase related protein (calcium-binding protein) (1370007_at)",[4]; [8],−2 fold
same,"fold change, regulator of G-protein signaling protein 2 (1368144_at)",[4]; [8],−2.44 fold
same,"fold change, retinol binding protein 1 (1367939_at)",[4]; [8],−1.75 fold
same,"fold change, serine (or cysteine) proteinase inhibitor, clade H, member 1 (1371310_s_at)",[4]; [8],−1.9 fold
same,"fold change, sulfotransferase family 1A, phenol-preferring, member 1 (1370019_at)",[4]; [8],1.87 fold
same,"fold change, syndecan 1 (1367849_at)",[4]; [8],−1.9 fold
same,"fold change, thyrotropin releasing hormone (1368912_at)",[4]; [8],−3.5 fold
same,"fold change, tissue inhibitor of metalloproteinase 1 (1367712_at)",[4]; [8],−2 fold
same,"fold change, tropomyosin 1, alpha (1370288_a_at)",[4]; [8],−2.44 fold
same,"fold change, tropomyosin 4 (1368838_at)",[4]; [8],−2.1 fold
same,"fold change, tumor rejection antigen gp96 (1388331_at)",[4]; [8],−2.1 fold
same,"fold change, glutathione S-transferase, alpha 1 (1367774_at)","[4]; NsPLA2-treated vs saline-treated MCAo brain, listed as PLA2",+2.0 fold
same,decrease in expression of thyrotropin releasing hormone,[4]; after PLA2 treatment,3.5 fold
same,"expression of glutathione-S-transferase, CAM kinase II and angiotensinogen (real-time PCR)",[5],increased
same,"expression of thyrotropin releasing hormone, secreted phosphoprotein, moesin, MMP-9, TIMP-1 and calgranulin A (real-time PCR)",[5],decreased
same,systemic inflammation,TNF-a,did not induce systemic inflammation
same,signs of toxicity,[6]; 30 μg/200 g body weight i.v.,did not induce any signs of toxicity
same,LD50,"[6]; rat, in vivo",125 μg/200 g body weight
same,Bax gene expression (real-time PCR),[7],down-regulated
same,Bcl-2 gene expression (real-time PCR),[7],up-regulated
same,Bcl-XL gene expression (real-time PCR),[7],up-regulated
B2,effect on infarct volume after transient ischemia,[1],did not significantly reduce infarct volume
same,neuroprotection compared with the phospholipase A2,[1],less neuroprotective
